Source: publication PMC10783653 (Cell reports. Physical science, 2023)

Tests used:
RET M918T = RET M918T (Homo sapiens, UniProt P07949, M918T); assay: LIMS-Kinase assay, RET M918T
EGFR L858R = EGFR L858R (Homo sapiens, UniProt P00533, L858R); format: biochemical; settings: enzyme optimization; 2.5 nM EGFR L858R, 1 μM peptide, 100 μM ATP, 60 min

Chain of RET M918T (P07949 29-1114 M918T): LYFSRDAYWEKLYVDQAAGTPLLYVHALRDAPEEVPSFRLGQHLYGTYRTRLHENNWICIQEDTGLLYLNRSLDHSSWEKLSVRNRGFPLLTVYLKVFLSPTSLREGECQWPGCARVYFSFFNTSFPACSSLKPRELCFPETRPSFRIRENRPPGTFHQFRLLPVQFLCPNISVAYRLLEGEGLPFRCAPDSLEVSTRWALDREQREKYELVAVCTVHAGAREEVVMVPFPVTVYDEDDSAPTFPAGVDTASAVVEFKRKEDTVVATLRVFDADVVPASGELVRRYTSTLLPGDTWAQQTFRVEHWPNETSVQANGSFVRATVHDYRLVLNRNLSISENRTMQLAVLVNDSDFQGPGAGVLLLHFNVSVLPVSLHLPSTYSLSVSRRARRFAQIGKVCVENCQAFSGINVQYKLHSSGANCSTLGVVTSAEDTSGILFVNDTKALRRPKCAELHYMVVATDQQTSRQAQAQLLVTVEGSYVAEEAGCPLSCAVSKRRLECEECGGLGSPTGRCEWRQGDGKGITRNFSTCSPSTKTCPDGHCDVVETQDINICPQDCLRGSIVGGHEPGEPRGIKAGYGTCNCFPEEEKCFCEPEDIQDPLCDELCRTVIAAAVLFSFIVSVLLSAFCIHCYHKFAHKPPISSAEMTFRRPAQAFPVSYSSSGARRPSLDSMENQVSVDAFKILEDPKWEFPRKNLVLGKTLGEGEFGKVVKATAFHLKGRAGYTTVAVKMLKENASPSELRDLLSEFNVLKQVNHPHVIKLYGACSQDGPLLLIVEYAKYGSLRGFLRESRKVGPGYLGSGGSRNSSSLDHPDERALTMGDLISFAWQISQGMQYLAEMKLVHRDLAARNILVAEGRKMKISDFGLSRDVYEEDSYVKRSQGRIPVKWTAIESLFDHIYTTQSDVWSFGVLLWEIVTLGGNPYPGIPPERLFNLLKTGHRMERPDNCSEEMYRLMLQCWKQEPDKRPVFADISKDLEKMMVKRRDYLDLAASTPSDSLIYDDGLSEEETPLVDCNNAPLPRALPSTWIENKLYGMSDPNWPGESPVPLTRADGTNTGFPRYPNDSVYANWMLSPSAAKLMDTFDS

COc1ccc(CN2C3CC2CN(c2ccc(-c4cc(OCC(C)(C)O)cn5ncc(C#N)c45)cn2)C3)cn1 [selpercatinib, reference compound]
potency in LIMS-Kinase assay compared to previously reported value (RET M918T; 0.7 nM vs. […]): more than six times higher

MS-Csktide2: kinase substrate peptide, sequence KEEIYFFFG
substrate converted (RET M918T; enzyme optimization, 2.5 nM RET M918T, 1 μM peptide, 100 μM ATP, 60 min): Approximately 39%

MS-Csktide1: kinase substrate peptide, sequence KEEIYFFF
substrate converted (EGFR L858R): approximately 20%
